Reference: the supplement of paper PMC9112550, “Optimization of the antimicrobial peptide Bac7 by deep mutational scanning” (BMC Biology, 2022)

These sequences were tested on Escherichia coli TOP10 (assay: shrunken log2 fold change of peptide-encoding DNA abundance (4.5 h post-induction vs induction); higher = less antimicrobial activity (less host growth inhibition)). Conditions: time post-induction: 4.5 h; library: site-saturation at positions 5, 18, 19, 20.
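Note: peptides expressed intracellularly from a pBAD plasmid library in pooled LB shake-flask culture, induced with 0.3% L-arabinose, DNA abundance read by NGS, three biological replicates, DESeq2 with apeglm shrinkage.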

Row | Sequence | shrunken log2 fold change
1 | RRIRCRPPRLPRPRPRPIWYPRP | -0.564
2 | RRIRERPPRLPRPRPRPTMSPRP | -0.217
3 | RRIRDRPPRLPRPRPRPIMSPRP | -0.0134
4 | RRIRIRPPRLPRPRPRPLRSPRP | 0.299
5 | RRIRKRPPRLPRPRPRPYFNPRP | -0.593
6 | RRIRQRPPRLPRPRPRPLVCPRP | 0.0584
7 | RRIRNRPPRLPRPRPRPSIRPRP | -0.0225
8 | RRIRWRPPRLPRPRPRPRGNPRP | 0.423
9 | RRIRRRPPRLPRPRPRPEAMPRP | -0.0491
10 | RRIRARPPRLPRPRPRPVPYPRP | -0.0718
11 | RRIRHRPPRLPRPRPRPIEMPRP | -0.00281
12 | RRIRHRPPRLPRPRPRPLENPRP | 0.00854
13 | RRIRCRPPRLPRPRPRPRHVPRP | -0.0723
14 | RRIRGRPPRLPRPRPRPKSCPRP | 0.959
15 | RRIRSRPPRLPRPRPRPEEQPRP | 0.64
16 | RRIRVRPPRLPRPRPRPLFAPRP | 0.477
17 | RRIRKRPPRLPRPRPRPILDPRP | 0.15
18 | RRIRPRPPRLPRPRPRPAVEPRP | 0.014
19 | RRIRHRPPRLPRPRPRPSIQPRP | -0.344
20 | RRIRWRPPRLPRPRPRPPHMPRP | 0.112
21 | RRIRKRPPRLPRPRPRPQYWPRP | 0.152
22 | RRIRMRPPRLPRPRPRPRECPRP | 0.0611
23 | RRIRFRPPRLPRPRPRPDYSPRP | -0.458

Row | Sequence | shrunken log2 fold change
24 | RRIRNRPPRLPRPRPRPLYCPRP | -0.793
25 | RRIRFRPPRLPRPRPRPGCTPRP | -0.116
26 | RRIRMRPPRLPRPRPRPLGYPRP | -0.264
27 | RRIRQRPPRLPRPRPRPMYNPRP | -0.545
28 | RRIRFRPPRLPRPRPRPGMDPRP | -0.25
29 | RRIRPRPPRLPRPRPRPDSMPRP | -0.326
30 | RRIRNRPPRLPRPRPRPNMLPRP | -0.772
31 | RRIRTRPPRLPRPRPRPWEMPRP | -0.0783
32 | RRIRFRPPRLPRPRPRPQKGPRP | 0.107
33 | RRIRLRPPRLPRPRPRPYCNPRP | -0.963
34 | RRIRNRPPRLPRPRPRPNLPPRP | -0.0407
35 | RRIRPRPPRLPRPRPRPLAVPRP | 0.161
36 | RRIRCRPPRLPRPRPRPRTGPRP | 0.148
37 | RRIRNRPPRLPRPRPRPPVHPRP | -0.148
38 | RRIRIRPPRLPRPRPRPYNIPRP | -0.257
39 | RRIRLRPPRLPRPRPRPDVDPRP | 0.0667
40 | RRIRMRPPRLPRPRPRPPCGPRP | 0.788
41 | RRIRWRPPRLPRPRPRPSASPRP | 0.363
42 | RRIRLRPPRLPRPRPRPNRIPRP | -0.0157
43 | RRIRVRPPRLPRPRPRPTHEPRP | 0.256
44 | RRIRHRPPRLPRPRPRPAMCPRP | -0.148
45 | RRIRSRPPRLPRPRPRPFANPRP | -0.0026
46 | RRIRWRPPRLPRPRPRPMHVPRP | 0.0255

Row | Sequence | shrunken log2 fold change
47 | RRIRRRPPRLPRPRPRPASGPRP | 0.302
48 | RRIRRRPPRLPRPRPRPGITPRP | -0.0143
49 | RRIRNRPPRLPRPRPRPWNEPRP | -0.233
50 | RRIRNRPPRLPRPRPRPDINPRP | -0.482
51 | RRIRNRPPRLPRPRPRPSSFPRP | -0.127
52 | RRIRARPPRLPRPRPRPMPAPRP | 0.722
53 | RRIRHRPPRLPRPRPRPCVMPRP | -0.239
54 | RRIRSRPPRLPRPRPRPYDVPRP | 0.0192
55 | RRIRYRPPRLPRPRPRPFRKPRP | -0.00664
56 | RRIRVRPPRLPRPRPRPLDIPRP | -0.0121
57 | RRIRVRPPRLPRPRPRPASQPRP | 0.128
58 | RRIRRRPPRLPRPRPRPMDTPRP | 0.229
59 | RRIRLRPPRLPRPRPRPLRSPRP | 0.474
60 | RRIRKRPPRLPRPRPRPKNSPRP | -0.0637
61 | RRIRPRPPRLPRPRPRPPSTPRP | 0.123
62 | RRIRVRPPRLPRPRPRPAIAPRP | 0.107
63 | RRIRFRPPRLPRPRPRPCDPPRP | -0.0886
64 | RRIRRRPPRLPRPRPRPVPNPRP | 0.353
65 | RRIRIRPPRLPRPRPRPQAMPRP | -0.0316
66 | RRIRRRPPRLPRPRPRPARLPRP | 0.269
67 | RRIRMRPPRLPRPRPRPETQPRP | 0.359
68 | RRIRHRPPRLPRPRPRPTLLPRP | -0.281
69 | RRIRSRPPRLPRPRPRPAVGPRP | 0.391

Row | Sequence | shrunken log2 fold change
70 | RRIRHRPPRLPRPRPRPRLEPRP | 0.0466
71 | RRIRNRPPRLPRPRPRPEPPPRP | 0.758
72 | RRIRERPPRLPRPRPRPAMWPRP | 0.293
73 | RRIRIRPPRLPRPRPRPYDIPRP | -0.0903
74 | RRIRVRPPRLPRPRPRPNEIPRP | -0.52
75 | RRIRVRPPRLPRPRPRPPHRPRP | 0.29
76 | RRIRPRPPRLPRPRPRPYNCPRP | -1.4
77 | RRIRFRPPRLPRPRPRPCEAPRP | 0.122
78 | RRIRQRPPRLPRPRPRPEQMPRP | -0.00448
79 | RRIRWRPPRLPRPRPRPGAQPRP | 0.655
80 | RRIRRRPPRLPRPRPRPHEGPRP | 0.28
81 | RRIRPRPPRLPRPRPRPFFLPRP | -0.041
82 | RRIRMRPPRLPRPRPRPDAVPRP | 3.73
83 | RRIRVRPPRLPRPRPRPNLAPRP | 0.0958
84 | RRIRLRPPRLPRPRPRPLHNPRP | -0.0106
85 | RRIRNRPPRLPRPRPRPQFRPRP | 0.00019
86 | RRIRRRPPRLPRPRPRPILIPRP | 0.118
87 | RRIRARPPRLPRPRPRPCLRPRP | 0.0978
88 | RRIRIRPPRLPRPRPRPEKGPRP | -0.257
89 | RRIRCRPPRLPRPRPRPGMKPRP | 0.062
90 | RRIRIRPPRLPRPRPRPHKYPRP | -1.08
91 | RRIRSRPPRLPRPRPRPRILPRP | -0.34
